Laboratory results as given in patent publication US6340743.

Target: Rabbit polymeric immunoglobulin receptor (pIgR), intact, expressed in transfected MDCK cells (pWe) (rabbit) (UniProt P01832)
Experiment: cell-based or functional assay

Sequence of UniProt P01832 (P01832 19-773): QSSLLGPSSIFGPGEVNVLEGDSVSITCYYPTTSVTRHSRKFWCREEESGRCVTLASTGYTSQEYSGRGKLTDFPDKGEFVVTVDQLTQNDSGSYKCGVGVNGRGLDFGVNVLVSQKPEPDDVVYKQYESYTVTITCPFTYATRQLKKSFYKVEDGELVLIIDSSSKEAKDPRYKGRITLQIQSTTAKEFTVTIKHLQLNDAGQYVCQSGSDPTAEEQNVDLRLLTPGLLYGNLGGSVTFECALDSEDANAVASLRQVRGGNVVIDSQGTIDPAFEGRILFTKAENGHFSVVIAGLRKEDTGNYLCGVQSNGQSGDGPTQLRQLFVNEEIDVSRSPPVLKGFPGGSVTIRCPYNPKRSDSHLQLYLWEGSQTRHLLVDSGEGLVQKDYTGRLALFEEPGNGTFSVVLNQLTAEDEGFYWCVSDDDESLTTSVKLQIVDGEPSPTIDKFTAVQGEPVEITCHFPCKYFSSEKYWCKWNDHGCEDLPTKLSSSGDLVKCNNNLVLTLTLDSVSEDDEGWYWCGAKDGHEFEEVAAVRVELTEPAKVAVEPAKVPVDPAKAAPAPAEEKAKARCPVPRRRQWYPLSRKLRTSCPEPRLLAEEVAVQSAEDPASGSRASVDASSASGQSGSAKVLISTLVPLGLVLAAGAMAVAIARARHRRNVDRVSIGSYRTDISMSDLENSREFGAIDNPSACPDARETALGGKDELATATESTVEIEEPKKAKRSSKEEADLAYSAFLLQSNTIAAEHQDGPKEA

percent of ligand transcytosed from the apical to the basolateral surface: 5 to 6%
Substance: Radio-iodinated IgA (antibody)
